Source: patent publication US10087225B2, “Formulation of MK2 inhibitor peptides” (MOERAE MATRIX, INC., priority 2015, dated 2018)

What was measured:
Assay in all cases: Kinase Profiling Assay
Type in all cases: biochemical
Details in all cases: for % activity: 100 μM
[1] = target: T1, DRAK1(h) (Homo sapiens, UniProt Q9UEE5)
T1 sequence (Q9UEE5 1-414): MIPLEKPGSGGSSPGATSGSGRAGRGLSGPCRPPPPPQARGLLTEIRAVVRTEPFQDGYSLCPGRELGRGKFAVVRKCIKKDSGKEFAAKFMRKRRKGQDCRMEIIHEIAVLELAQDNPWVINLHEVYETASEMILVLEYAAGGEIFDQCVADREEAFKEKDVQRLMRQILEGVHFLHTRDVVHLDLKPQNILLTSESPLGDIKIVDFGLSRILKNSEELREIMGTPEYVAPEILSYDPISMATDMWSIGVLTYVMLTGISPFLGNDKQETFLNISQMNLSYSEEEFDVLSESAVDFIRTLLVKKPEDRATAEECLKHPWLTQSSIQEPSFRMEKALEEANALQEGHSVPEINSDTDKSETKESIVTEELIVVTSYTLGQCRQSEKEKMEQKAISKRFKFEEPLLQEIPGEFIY

[2] = target: EGFR(L861Q)(h) (Homo sapiens, UniProt P00533, L861Q)
[3] = target: JAK2(h) (Homo sapiens, UniProt O60674)
Sequence of JAK2(h) (O60674 whole entry): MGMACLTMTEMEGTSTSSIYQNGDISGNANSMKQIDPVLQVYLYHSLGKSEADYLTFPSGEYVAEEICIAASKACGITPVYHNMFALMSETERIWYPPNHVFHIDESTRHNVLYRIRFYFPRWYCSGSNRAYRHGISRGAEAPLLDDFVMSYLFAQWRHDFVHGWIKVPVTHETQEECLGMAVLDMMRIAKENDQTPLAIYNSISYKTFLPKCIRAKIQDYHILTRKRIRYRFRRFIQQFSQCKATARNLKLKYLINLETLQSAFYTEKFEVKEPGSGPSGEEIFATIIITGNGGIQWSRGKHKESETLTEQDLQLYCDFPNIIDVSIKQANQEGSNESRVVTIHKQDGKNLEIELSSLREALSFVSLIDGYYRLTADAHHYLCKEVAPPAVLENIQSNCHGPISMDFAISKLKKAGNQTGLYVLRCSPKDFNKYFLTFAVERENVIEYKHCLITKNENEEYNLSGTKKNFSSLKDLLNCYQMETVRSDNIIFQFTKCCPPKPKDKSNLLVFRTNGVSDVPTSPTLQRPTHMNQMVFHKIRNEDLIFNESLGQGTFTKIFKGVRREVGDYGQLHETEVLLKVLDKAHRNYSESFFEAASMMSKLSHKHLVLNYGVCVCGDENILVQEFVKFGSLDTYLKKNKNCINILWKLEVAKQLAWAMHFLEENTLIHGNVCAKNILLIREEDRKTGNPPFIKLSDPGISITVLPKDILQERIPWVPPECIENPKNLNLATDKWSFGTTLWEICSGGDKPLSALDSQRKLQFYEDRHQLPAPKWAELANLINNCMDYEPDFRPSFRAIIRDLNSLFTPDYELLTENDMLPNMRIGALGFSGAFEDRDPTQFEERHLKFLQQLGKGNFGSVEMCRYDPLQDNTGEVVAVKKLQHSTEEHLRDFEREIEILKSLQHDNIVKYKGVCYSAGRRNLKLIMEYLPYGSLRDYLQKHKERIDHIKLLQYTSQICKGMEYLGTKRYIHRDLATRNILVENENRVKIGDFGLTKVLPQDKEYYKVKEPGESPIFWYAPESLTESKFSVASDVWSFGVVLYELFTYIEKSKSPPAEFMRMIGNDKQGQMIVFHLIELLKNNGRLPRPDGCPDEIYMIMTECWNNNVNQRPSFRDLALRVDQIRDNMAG

[4] = target: KDR(h) (Homo sapiens, UniProt P35968)
Sequence of KDR(h) (P35968 20-1356): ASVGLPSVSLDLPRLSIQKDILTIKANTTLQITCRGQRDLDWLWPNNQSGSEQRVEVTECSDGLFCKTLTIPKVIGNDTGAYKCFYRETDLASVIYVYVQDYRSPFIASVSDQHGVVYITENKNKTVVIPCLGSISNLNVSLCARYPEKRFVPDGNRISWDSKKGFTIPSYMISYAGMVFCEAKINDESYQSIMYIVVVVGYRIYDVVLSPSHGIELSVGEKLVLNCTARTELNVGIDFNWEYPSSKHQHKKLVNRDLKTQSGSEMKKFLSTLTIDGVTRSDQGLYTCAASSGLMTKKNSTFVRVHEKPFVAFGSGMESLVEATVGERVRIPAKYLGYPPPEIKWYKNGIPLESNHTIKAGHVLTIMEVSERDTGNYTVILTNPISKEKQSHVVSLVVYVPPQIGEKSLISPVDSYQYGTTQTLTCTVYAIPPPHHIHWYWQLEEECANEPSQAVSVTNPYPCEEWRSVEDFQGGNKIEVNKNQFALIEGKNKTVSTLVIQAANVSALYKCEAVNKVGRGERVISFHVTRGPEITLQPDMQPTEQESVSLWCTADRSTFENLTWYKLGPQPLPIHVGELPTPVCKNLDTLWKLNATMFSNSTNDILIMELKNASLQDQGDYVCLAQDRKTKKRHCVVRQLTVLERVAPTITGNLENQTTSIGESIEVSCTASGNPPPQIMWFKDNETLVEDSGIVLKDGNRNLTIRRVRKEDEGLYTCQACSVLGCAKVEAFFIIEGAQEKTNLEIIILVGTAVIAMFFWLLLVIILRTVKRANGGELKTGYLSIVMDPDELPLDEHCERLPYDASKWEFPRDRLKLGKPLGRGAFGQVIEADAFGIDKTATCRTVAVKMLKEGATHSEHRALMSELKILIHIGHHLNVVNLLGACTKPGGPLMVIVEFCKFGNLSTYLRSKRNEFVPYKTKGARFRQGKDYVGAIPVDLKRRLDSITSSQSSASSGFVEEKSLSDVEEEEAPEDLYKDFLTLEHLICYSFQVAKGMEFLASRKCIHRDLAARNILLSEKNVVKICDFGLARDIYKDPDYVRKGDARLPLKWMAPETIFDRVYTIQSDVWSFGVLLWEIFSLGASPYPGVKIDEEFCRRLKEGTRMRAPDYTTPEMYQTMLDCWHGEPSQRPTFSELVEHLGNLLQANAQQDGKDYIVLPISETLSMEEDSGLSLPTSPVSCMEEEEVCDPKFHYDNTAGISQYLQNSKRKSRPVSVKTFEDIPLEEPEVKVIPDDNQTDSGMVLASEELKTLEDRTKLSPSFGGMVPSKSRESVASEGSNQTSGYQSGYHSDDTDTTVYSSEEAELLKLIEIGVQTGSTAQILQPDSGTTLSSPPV

[5] = target: LOK(h) (Homo sapiens, UniProt O94804)
Sequence of LOK(h) (O94804 whole entry): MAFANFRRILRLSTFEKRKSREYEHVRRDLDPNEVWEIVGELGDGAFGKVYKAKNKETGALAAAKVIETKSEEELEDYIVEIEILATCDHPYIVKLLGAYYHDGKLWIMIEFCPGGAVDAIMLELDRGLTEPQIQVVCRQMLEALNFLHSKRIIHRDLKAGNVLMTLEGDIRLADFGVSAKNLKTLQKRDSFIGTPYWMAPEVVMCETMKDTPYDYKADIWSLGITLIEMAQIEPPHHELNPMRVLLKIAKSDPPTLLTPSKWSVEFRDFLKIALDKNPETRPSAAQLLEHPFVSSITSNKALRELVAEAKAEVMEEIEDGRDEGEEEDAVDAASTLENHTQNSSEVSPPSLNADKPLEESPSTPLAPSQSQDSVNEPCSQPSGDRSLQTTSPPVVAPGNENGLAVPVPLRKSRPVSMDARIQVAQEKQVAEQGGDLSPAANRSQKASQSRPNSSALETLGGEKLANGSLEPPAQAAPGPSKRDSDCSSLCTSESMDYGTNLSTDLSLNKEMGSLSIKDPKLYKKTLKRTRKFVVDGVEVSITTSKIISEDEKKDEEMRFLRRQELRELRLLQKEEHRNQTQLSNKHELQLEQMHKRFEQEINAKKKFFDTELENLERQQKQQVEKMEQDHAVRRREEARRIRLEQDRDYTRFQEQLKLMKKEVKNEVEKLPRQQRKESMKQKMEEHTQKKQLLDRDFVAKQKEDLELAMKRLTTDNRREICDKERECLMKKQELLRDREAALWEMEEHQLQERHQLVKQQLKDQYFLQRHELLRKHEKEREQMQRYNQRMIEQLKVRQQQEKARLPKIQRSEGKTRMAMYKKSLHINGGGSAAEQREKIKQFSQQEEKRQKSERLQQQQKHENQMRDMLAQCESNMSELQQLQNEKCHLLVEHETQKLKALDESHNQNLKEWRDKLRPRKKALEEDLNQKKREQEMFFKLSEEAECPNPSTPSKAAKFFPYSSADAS

[6] = target: T2, Mer(h) (Homo sapiens, UniProt Q12866)
T2 sequence (Q12866 21-999): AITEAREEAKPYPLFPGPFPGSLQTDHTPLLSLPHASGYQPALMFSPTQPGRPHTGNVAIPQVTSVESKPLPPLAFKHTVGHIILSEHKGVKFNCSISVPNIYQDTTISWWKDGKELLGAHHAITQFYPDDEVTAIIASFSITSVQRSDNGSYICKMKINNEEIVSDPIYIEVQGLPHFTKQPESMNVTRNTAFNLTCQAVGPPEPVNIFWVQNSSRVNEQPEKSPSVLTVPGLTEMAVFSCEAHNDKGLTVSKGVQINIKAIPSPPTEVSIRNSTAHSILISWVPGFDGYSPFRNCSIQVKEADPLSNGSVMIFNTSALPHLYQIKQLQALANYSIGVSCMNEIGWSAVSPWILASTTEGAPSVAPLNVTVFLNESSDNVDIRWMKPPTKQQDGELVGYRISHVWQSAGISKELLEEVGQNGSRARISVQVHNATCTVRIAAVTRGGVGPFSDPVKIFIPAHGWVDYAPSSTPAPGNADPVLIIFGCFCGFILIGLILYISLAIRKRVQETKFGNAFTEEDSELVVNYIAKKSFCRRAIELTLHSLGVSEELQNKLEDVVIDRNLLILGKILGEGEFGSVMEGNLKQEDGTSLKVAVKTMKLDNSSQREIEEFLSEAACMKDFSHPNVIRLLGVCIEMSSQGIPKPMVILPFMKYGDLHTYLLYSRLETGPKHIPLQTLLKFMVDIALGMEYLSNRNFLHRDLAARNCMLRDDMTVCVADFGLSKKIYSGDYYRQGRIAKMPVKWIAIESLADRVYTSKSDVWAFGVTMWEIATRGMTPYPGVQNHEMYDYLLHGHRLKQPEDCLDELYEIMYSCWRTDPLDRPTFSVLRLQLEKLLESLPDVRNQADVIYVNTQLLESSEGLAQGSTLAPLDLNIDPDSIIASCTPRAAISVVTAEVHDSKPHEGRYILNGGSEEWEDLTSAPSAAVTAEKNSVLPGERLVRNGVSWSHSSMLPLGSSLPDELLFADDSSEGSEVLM

[7] = target: Rsk4(h) (Homo sapiens, UniProt Q9UK32)
Sequence of Rsk4(h) (Q9UK32 whole entry): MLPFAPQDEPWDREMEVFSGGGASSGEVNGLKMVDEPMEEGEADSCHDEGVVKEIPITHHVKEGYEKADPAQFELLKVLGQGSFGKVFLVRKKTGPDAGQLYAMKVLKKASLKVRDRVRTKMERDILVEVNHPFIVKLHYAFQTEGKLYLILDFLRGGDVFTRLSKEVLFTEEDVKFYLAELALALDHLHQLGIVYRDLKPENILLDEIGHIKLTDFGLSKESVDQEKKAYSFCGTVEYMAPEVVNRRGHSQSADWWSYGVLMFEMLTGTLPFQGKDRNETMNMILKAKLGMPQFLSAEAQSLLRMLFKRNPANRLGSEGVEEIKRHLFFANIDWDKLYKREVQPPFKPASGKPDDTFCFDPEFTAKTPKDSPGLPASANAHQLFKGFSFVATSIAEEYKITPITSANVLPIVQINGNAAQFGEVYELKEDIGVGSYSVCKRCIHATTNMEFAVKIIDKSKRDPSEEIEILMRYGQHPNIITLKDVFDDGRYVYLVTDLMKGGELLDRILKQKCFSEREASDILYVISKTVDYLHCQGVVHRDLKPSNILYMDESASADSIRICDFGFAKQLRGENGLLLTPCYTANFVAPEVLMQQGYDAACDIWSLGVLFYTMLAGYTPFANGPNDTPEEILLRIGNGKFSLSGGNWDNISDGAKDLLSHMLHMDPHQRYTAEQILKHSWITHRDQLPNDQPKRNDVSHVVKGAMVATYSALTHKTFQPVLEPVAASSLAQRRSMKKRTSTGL

[8] = target: TrkB(h) (Homo sapiens, UniProt Q16620)
[9] = target: T3, ULK2(h) (Homo sapiens, UniProt Q8IYT8)
T3 sequence (Q8IYT8 1-1036): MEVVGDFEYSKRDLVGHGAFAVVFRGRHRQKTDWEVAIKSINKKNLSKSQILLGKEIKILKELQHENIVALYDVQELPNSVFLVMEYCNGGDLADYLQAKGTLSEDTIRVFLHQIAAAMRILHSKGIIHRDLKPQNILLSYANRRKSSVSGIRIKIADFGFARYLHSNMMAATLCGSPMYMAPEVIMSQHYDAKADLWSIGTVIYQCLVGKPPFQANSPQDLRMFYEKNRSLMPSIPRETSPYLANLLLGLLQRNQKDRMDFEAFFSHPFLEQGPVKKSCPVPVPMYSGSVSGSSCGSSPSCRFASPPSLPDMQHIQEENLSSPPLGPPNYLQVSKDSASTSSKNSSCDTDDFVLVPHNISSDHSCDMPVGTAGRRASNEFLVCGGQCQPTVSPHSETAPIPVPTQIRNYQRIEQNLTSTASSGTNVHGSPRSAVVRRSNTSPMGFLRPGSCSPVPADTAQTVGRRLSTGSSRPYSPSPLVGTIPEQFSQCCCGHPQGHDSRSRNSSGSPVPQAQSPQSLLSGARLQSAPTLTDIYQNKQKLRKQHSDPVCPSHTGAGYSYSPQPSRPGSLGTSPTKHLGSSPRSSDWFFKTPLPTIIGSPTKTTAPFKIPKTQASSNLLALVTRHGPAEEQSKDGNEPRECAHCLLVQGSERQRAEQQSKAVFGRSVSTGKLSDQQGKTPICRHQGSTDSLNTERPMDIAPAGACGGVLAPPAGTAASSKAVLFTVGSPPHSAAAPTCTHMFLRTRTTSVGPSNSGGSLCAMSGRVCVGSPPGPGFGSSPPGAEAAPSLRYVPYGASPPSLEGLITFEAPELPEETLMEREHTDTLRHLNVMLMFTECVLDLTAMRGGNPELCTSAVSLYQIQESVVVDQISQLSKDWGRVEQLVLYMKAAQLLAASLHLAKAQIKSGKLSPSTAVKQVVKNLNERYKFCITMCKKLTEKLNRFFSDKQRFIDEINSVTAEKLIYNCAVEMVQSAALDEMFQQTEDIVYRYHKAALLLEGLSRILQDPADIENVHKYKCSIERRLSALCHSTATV

| Substance | activity at 100 µM [1] | activity at 100 µM [2] | activity at 100 µM [3] | activity at 100 µM [4] | activity at 100 µM [5] | activity at 100 µM [6] | activity at 100 µM [7] | activity at 100 µM [8] | activity at 100 µM [9] | % activity [1] | % activity [2] | % activity [3] | % activity [4] | % activity [5] | % activity [6] | % activity [7] | % activity [8] | % activity [9] |
| --- | --- | --- | --- | --- | --- | --- | --- | --- | --- | --- | --- | --- | --- | --- | --- | --- | --- | --- |
| H-YARAAARQARAKALARQLGVAA-OH [MMI-0100] | 47% | 53% | 89% | 100% | 37% | 47% | 99% | 4% | 123% | – | – | – | – | – | – | – | – | – |
| HRRIKAWLKKIKALARQLGVAA (Mammalian) [MMI-0500] | – | – | – | – | – | – | – | – | – | 8% | 15% | 49% | 15% | 7% | 17% | 29% | 12% | 124% |
| YARAAARQARAKALNRQLGVA (Mammalian) [MMI-0200] | – | – | – | – | – | – | – | – | – | 34% | 74% | 131% | 110% | 67% | 90% | 125% | 7% | 132% |
